Laboratory results taken from PMC8918354.

Target: iron superoxide dismutase SodB from Acinetobacter sp. Ver3 (Acinetobacter sp. Ver3)
Experiment: crystal structure; space group C222(1), one molecule per asymmetric unit, dimer formed by crystallographic symmetry; 1.34 Å; crystals grown at 20 °C from 10 mg/ml protein with 1 mM FMN in the mother liquor

stoichiometry N: 2
Substance: iron superoxide dismutase SodB from Acinetobacter sp. Ver3 (enzyme)
